Reference: patent US20240287172A1 (SCIRHOM, published 2024)
Positions count from the first letter of the chain named.

B1: antibody 48 (antibody, V domains shown)
VH: QVQLQQSGTELVRPGTSVKVSCKASGYAFTNYLIEWVKQRPGQGLEWIGVINPGSGFTKYNEKFKGKATLTADKSSSTVYMHLSSLTSEDSAVYFCARGLYRAMDYWGQGTSVTVSS
VL: DIQMTQSPASQSASLGESVTITCLASQTIATWLAWYQQKPGKSPQLLIYGATTLADGVPSRFSGGGSGTKFSFKISSLQAEDFVSYYCQQLYSTPYTFGGGTKLEIK
notes: mouse IgG, kappa light chain; also called clone #48; purified antibody 48
B2: antibody 50 (antibody, V domains shown)
VH: B1 VH with T9A, T16A, T30S, V79A, H82Q
VL: B1 VL with A30G, G50A, T52A, T53S, S85N, L91I
notes: mouse IgG, kappa light chain; also called clone #50; purified antibody 50

Tests used:
hiR2-FL-T519A-T7 = target: T1, hiR2-FL-T519A-T7 (human, UniProt Q6PJF5 1-856); assay: FACS on MEF-DKO cells expressing the variant, 3 µg/ml antibody
T1 sequence: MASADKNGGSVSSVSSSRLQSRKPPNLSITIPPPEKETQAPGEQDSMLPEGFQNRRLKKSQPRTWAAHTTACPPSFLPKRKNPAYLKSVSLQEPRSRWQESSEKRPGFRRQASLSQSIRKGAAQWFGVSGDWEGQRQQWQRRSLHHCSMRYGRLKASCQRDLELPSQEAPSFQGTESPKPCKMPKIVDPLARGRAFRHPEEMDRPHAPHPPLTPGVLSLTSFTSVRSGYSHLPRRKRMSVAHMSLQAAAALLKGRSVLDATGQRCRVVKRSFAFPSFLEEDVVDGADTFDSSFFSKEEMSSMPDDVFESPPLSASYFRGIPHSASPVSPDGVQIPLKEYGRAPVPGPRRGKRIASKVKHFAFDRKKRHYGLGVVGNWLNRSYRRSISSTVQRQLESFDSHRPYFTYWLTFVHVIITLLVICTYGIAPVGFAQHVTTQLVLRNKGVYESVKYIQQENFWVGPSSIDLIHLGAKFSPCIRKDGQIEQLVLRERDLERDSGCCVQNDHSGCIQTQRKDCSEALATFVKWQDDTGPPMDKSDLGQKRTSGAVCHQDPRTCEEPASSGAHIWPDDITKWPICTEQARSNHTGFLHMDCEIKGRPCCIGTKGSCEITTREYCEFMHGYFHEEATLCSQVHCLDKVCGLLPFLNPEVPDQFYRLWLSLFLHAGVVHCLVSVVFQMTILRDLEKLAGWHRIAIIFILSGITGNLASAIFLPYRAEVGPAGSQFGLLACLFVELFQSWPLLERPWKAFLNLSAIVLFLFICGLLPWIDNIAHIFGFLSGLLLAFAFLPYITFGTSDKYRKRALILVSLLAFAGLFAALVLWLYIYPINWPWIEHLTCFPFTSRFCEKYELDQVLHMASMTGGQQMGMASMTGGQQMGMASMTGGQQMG
Outline: (§1)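 Cells stained with purified antibody at 3 μg/ml for 1 h on ice, then with PE-conjugated goat anti-mouse IgG F(ab′)2 (1:100) for 1 h on ice in the dark. Binding read by flow cytometry; buffer-only staining as control.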

hiR2-FL-L589A-T7 = target: T2, hiR2-FL-L589A-T7 (human, UniProt Q6PJF5 1-856); assay: as above
T2 sequence: T1 sequence with A519T, L589A
Outline: as §1

| Binder | loss of binding vs wild type (hiR2-FL-T519A-T7) | loss of binding vs wild type (hiR2-FL-L589A-T7) |
| --- | --- | --- |
| B1 | ≥ 60% | ≥ 60% |
| B2 | ≥ 60% | ≥ 60% |
